Experimental data taken from patent publication US20130259878A1 (OXFORD BIOTHERAPEUTICS, published 2013).

What was measured:
[1] = target: T1, human Cadherin-17 (CDH17), cell-surface, endogenous on human cancer cells (human, UniProt Q12864 23-832); experiment: flow cytometry on LoVo cells, antibody titration
T1 construct: Endogenous CDH17 on LoVo, LS174T and SNU-1 cells and in human tumor tissue sections; also called liver-intestine cadherin; LI-cadherin
T1 sequence: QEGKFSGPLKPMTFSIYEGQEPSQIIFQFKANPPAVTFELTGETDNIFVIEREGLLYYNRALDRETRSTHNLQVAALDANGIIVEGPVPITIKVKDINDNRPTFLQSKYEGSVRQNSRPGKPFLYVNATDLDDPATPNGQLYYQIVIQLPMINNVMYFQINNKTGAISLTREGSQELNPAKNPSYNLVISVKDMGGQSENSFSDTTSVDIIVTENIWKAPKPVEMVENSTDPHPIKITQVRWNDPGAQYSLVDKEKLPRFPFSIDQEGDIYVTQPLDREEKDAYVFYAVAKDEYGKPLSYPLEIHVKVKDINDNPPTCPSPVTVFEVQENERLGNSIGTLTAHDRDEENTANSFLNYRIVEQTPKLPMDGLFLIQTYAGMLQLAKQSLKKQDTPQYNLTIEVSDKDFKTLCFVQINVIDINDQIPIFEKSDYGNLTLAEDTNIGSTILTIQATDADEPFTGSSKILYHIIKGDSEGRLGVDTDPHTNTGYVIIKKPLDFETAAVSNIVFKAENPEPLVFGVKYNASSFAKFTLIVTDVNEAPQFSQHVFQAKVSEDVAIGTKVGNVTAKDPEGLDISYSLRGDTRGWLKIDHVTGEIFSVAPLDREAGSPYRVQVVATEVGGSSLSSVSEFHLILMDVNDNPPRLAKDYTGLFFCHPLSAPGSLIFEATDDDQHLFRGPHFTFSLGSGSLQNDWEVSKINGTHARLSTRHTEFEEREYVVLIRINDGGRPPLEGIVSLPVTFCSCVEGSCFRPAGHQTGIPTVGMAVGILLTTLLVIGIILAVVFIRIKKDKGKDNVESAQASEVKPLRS

[2] = target: T2, CDH17 human full length Flag tagged antigen, transfected into HEK293 cells (human, UniProt Q12864 23-832); experiment: flow cytometry on HEK293 cells transiently transfected with Flag tagged human CDH17; panel 'CDH17 Human Flag Tag analyzed with CDH17_A4_4K'
T2 construct: The Flag tag may sit at either end; also called Flag tagged Human CDH17; human CDH17; not shown: Flag tag
T2 sequence: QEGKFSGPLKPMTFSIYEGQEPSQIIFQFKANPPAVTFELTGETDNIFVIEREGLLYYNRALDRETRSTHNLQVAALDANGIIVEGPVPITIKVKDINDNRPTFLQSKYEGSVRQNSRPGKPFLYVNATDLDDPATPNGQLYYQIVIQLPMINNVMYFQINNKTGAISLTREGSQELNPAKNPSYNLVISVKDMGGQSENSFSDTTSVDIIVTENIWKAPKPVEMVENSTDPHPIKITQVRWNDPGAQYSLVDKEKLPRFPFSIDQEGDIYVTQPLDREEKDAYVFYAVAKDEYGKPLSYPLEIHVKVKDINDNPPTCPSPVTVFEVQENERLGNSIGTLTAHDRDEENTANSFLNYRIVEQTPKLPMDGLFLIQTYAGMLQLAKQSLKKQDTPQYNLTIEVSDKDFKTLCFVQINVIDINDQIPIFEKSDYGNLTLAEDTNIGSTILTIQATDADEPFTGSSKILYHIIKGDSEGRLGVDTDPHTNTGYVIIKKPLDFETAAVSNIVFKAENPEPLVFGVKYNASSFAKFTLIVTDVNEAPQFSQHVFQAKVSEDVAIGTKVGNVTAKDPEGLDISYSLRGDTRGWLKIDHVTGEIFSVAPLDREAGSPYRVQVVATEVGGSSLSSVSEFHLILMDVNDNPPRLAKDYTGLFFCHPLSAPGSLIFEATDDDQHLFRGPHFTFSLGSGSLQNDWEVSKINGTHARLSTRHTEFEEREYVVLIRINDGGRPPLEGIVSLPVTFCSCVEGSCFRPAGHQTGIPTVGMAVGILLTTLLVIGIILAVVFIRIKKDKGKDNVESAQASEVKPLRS
Procedure: (§1) The humanized monoclonal antibodies, CDH17_A4_{—}4K and CDH17_A4_{—}4R were incubated with cells on ice for 1 hour and then washed twice with cold FACS buffer and re-suspended in 100 ul FACS buffer per well. A secondary antibody was added at 1 ug/ml along with goat anti-mouse H+L PE (Southern Biotech) for Anti-flag and mouse isotype control and goat anti-human H+L PE (Southern Biotech) for human isotype control. The plate was then incubated for 1 hour after which was washed three times with FACS buffer and re-suspended 150 ul FACS buffer per well. 50 ul of 4% paraformaldehyde was then added to fix the cells before storing the plate overnight at 4 degrees C. The sample were then run on Guava EasyCyte Flow Cytometer HT plus and the data analyzed using the Guava Cytosoft software suite.

[3] = target: T2, CDH17 human full length Flag tagged …; experiment: flow cytometry on HEK293 cells transiently transfected with Flag tagged human CDH17; panel 'CDH17 Human Flag Tag analyzed with CDH17_A4_4R'
Procedure: as §1

B1: CDH17_A4 monoclonal antibody (Fab, V domains shown)
VH: EVQLQQSVAELVKPGASVKMSCKVSGYTLTDHTIHWMKQRPEQGLEWIGYIYPRDGITGYNEKFKGKATLTADTSSSTAYMQLNSLTSEDSAVYFCARWGYSYRNYAYYYDYWGQGTTLTVSS
VL: DIVMSQSPSSLAVSVGEKVTMSCKSSQSLLHSSNQKNYLAWYQQKPGQSPKVLIYWASTRESGVPDRFTGSGSGTDFTLTITSVKSEDLAVYYCQQYYSYPWTFGGGTRLEIK
notes: also called CHD17_A4
binding result [1]: binds

B2: humanized CDH17_A4-4K monoclonal antibody (antibody, V domains shown)
VH: QVQLVQSGAEVKKPGASVKVSCKASGYTLTDHTIHWMRQAPGQRLEWIGYIYPRDGITGYNEKFKGKATLTADTSASTAYMELSSLRSEDTAVYYCARWGYSYRNYAYYYDYWGQGTLVTVSS
VL: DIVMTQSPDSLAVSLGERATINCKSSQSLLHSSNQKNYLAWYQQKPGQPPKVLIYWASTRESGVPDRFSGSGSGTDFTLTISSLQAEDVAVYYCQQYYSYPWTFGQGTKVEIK
notes: It was detected with an anti-human IgG secondary in the HumZAP assay
EC50 [2]: 0.14 nM

B3: humanized CDH17_A4-4R monoclonal antibody (antibody, V domains shown)
VH: QVQLVQSGAEVKKPGASVKVSCKASGYTLTDHTIHWMRQAPGQRLEWIGYIYPRDGITGYNERFRGKATLTADTSASTAYMELSSLRSEDTAVYYCARWGYSYRNYAYYYDYWGQGTLVTVSS
VL: DIVMTQSPDSLAVSLGERATINCRSSQSLLHSSNQRNYLAWYQQKPGQPPKVLIYWASTRESGVPDRFSGSGSGTDFTLTISSLQAEDVAVYYCQQYYSYPWTFGQGTKVEIK
notes: as for B2
EC50 [3]: 0.13 nM
